This sample holds only a part of the variants without activity.
B1: TPR 5TU (parent)
chain: GGAUCUUCUCGAUCUAACAAAAAAGACAAAUCUGCCACAAAGCUUGAGAGCAUCUUCGGAUGCAGAGGCGGCAGCCUUCGGUGGCGCGAUAGCGCCAACGUUCUCAACUAUGACACGCAAAACGCGUGCUCCGUUGAAUGGAGUUUAUCAUG

Variants of: B1
Test: polymerase ribozyme fitness, log enrichment relative to wild type (log ratio); higher = more active; in vitro selection for triplet polymerase activity
Procedure, shortened: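 Genotype fitness is the logarithm of its enrichment divided by wild-type enrichment, using inverse-variance-weighted averages of replicates. That logarithm is base 2. Enrichment was measured by Illumina sequencing of input and output libraries from one triplicate in vitro selection round, with frozen incubation at −7 °C, on PCR-built, transcribed mutant libraries of each subunit of a heterodimeric triplet polymerase ribozyme, retaining genotypes with ≥10 input reads and ≥1 read per output.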

Point of comparison: U55A G81A C93U C105A C118U, “polymerase ribozyme fitness (log ratio)” value -3.74. Against it:
- U55G G81A G141C U146G — higher, -2.62
- U55A U78G G94U C114G — lower, ≤ -4.2
- U55G C57G C95U C96A C118G — higher, -2.53
- U55A C87U — higher, -1.1
- U55A C87A — lower, ≤ -4.2
- U56A A91G — higher, -3.41
- U56A C85U A121U C123G G124A U134A — higher, -2.61
- U55G G81A C118U U135G — within 0.2 log units, -3.84
- U56A C57A G84A — higher, -0.56
- U56A G58U C69U C95A C96A C118U — higher, -2.19
- U55A C85A G133C — higher, -3.05
- U55A G126U — higher, -0.31
- U55G G70A C129G — lower, ≤ -4.2
- U55G U82A U148C — higher, -2.51
- U55A C85A A119U U134A A142C — lower, ≤ -4.2
- U55A U77C C105A A107U U127G A137C — lower, ≤ -4.2
- U55A U127G — higher, -2.72
- U55A G58U G84A C103U A120C — higher, -0.0961
- U56A C96G U139G — higher, -0.96
- U56A C85U — higher, -0.564
- U56A C85A — higher, -2.02
- U56A C85G — higher, -2.44
- U55G C57G A97G A106C — higher, -3
- U55A C114U — higher, -2.21
- U55A C114A — higher, -3.44
- U55A U78A C85U C93U — lower, ≤ -4.2
- U55A C76U A121C — higher, -0.181
- U55G G86A U139G — higher, -1.96
- U56A A89G C99A — higher, -1.89
- U55A G84U — higher, -2.28
- U55A G84A — higher, -1.01
- U55A G140U — higher, -2.9
- U55A G140A — lower, -4
- U56A C57A U144A — higher, -0.177
- U55A C87G C149G — lower, ≤ -4.2
- U55A G83U — higher, -1.69
- U55A U145C — higher, 0.505
- U56A G58C G92U C93A C118A — within 0.2 log units, -3.82
- U55C C63U C85G A107U A142U U145A — lower, ≤ -4.2
- U56A G59A C96U — higher, 0.392
- U55G G86A U134A — within 0.2 log units, -3.62
- U55G G68C A107C C125A U151G — lower, ≤ -4.2
- U56A C85G C93G A107U U111G — lower, ≤ -4.2
- U56A A66C C72U G92A C93U C95A C116A — lower, ≤ -4.2
- U56A A91U C125U C132U G140A U148A — lower, ≤ -4.2
- U55G G81A U139C — lower, ≤ -4.2
- U56A C72G — within 0.2 log units, -3.76
- U55A U90C C95U U146C C149A — lower, ≤ -4.2
- U55C U56A A98U U145A — higher, -1.11
- U55A C76U C93U C95U G143A — higher, -2.72
- U56A A64U — lower, -4.19
- U56A C95A C103G C132A U146A — lower, ≤ -4.2
- U55A U56C G58A G92C A119U U145G — higher, -2.87
- U55A G84U A106C U144C U146C — lower, -4.16
- U56A A60G C125G — higher, -0.563
- U55G G84A A89U C103U — higher, -1.64
- U55A U61A — higher, -3.16
- U55A G84A A119C G133U G143A — lower, -4.03
- U55A G71A U77C C95U A113C C149G — lower, ≤ -4.2
- U55G A60G — higher, 0.467
- U55A U139G — higher, -0.865
- U55G A97G — higher, 0.0201
- U55A C132A A137G G143A U146G — lower, ≤ -4.2
- U56A C69G U148A — lower, -4.17
- U55A G94C U148G — lower, ≤ -4.2
- U56A G58C C93U U127G U145A — within 0.2 log units, -3.83
- U56A C57U U61A C75A G88U A120U U139A G143C — lower, ≤ -4.2
- U55A U56A A106C — higher, -1.06
- U55A G100A — lower, ≤ -4.2
- U56A A60G — higher, 0.416
- U56A G58U A115G — higher, -0.802
- U55A G128A — lower, -4.18
- U55G C69A C99U — higher, -0.89
- U56A C125U A142C — the same, -3.74
- U55A G58U G83C G124C C132G — lower, ≤ -4.2
- U56A G71U C125G — within 0.2 log units, -3.78
- U56A C57U G86C A98C G141A G152A — higher, -3.31
- U55A G81C C118G G141A U146A — higher, -2.94
- U56A C57A C85U C87U — higher, -0.523
- U55A U61A C79A G83A U90G G143A — lower, ≤ -4.2
- U55A G94C — higher, -0.443
- U56A C93U — higher, -2.13
- U56A C93G — within 0.2 log units, -3.55
- U56A C93A — higher, -2.63
- U55G C87A G141C — the same, -3.74
- U55G C72U G83U C96U — higher, -1.11
- U55G U82G C85A A97C U104C G136U — within 0.2 log units, -3.65
- U55G A106C — higher, -0.416
- U55A U135A — higher, -1.74
- U55A U102G — lower, -4.04
- U55G G58C G59U G67C U78A C95U A113G — lower, ≤ -4.2
- U56A A110C — within 0.2 log units, -3.84
- U55G G84U A98C U151C — lower, ≤ -4.2
- U55G G84U — higher, -0.827
- U55G C72U G136C — the same, -3.74
- U56A C87G G94C U104C G117U A119U U134C — lower, -3.94
- U55A G86A C149U A150U — higher, -1.65
- U55G G59C A142C — higher, -3.24
- U55G A110G — higher, -2.87
- U55A G141A — higher, -0.587
- U56A C149U — higher, -0.627
- U56A G58U A97C C99A — higher, -2.52
- U55A G117A — higher, -0.438
- U56A C103A A110G U144G — within 0.2 log units, -3.91
- U55A G58A A89C A120U U134C — higher, 0.161
- U55A C85A C105U U134A — lower, ≤ -4.2
- U55A U78C C123G — higher, -0.403
- U55G C57G U101G — higher, 0.189
- U55A G92U G124U G141C — higher, -1.14
- U55G A89G G124C U146C — higher, -1.44
- U55A G62A C69G G71A — lower, ≤ -4.2
- U55G U56A G68A C96U — lower, ≤ -4.2
- U55G C108G G133U A142C — lower, -4.19
- U55G G92U U139G U146G — higher, -1.4
- U56A G59C U144G — higher, 2.23
- U55A G59A — higher, 1.69
- U55G C75U — higher, -0.769
- U55G G84U A106G — higher, -1.26
- U55A G80A — higher, -1.65
- U55A U82G C116A A121U A137C — higher, -3.5
- U55C G58U G124A — higher, -0.624
- U56A C79U C118G C132A — lower, -4.05
- U55G U145A — higher, -0.604
- U55A G62C G81A — lower, -3.98
- U56A C96A C103U — higher, 0.293
- U56A G58C C93A G124A — higher, -2.36
- U55A U144G — higher, 0.364
- U55A U144A — higher, -0.497
- U55A U144C — higher, 0.176
- U55A C125A — higher, -0.912
- U55A C79G G81A — lower, -4.18
- U55G U90G A97G U135G — lower, ≤ -4.2
- U55A U78G G84U C87G C118U — lower, ≤ -4.2
- U55A C93U A115U G143U — lower, ≤ -4.2
- U56A C96U U145A G152A — higher, -2
- U55A C129A — higher, -2.11
- U55G A73C C87A — lower, ≤ -4.2
- U55G G80A — higher, -2.09
- U55G U134C G143U — higher, -1.98
- U55A U61A C96A C116G — higher, -2.17
- U55C C75G C76U G80A C87G C108U — lower, ≤ -4.2
- U55A G70A C123G — higher, -3.3
- U56A C93A A98U A107G C129U — lower, ≤ -4.2
- U55G G94A A98U C118A — higher, -1.56
- U55A C87U U146A — higher, -1.36
- U55A C116G — higher, 0.374
- U55G C63U G81U C87G U102G C116G A150C — lower, ≤ -4.2
- U55A G84U G128U U134C — lower, -4.17
- U56A G70C U78A U82A C131A — lower, ≤ -4.2
- U55A U61A A97C C103A C125A — lower, ≤ -4.2
- U55A G86U A91U G133U A147U — lower, ≤ -4.2
- U55G U134A U139A — lower, ≤ -4.2
- U55G G83C — higher, -0.921
- U55G G83U — higher, -0.389
- U55G G83A — higher, -0.31
- U55G C79G U145A — lower, ≤ -4.2
- U56A G58A C76U C123U C125G G143A — higher, 0.457
- U56A G70C — higher, -3.24
- U56A G58C G92A A106G — higher, -3.51
- U55G A73U A122G G126C — higher, -1.69
- U56A C87A C105G G128C — lower, ≤ -4.2
- U55A C93G G141C — within 0.2 log units, -3.82
- U56A A115G G124C — higher, -1.61
- U56A C85U G128U — higher, -2.89
- U56A G59A A113C G152U — lower, ≤ -4.2
- U55G C114U — higher, -2.17
